Data reported in paper PMC10699557 (2023).
Numbered stars: 1 amine (or outer) side, 2 acyl side, 3 side chain; on linkers, the order of the positions; unused ones are H or OH. Bridge positions count the residues as written; N and C are the ends. Primed or numbered codes have the meaning given here. Ends that are not written are not given here. DVP = divinylpyrimidine, c1nc(CC[*:1])cc(CC[*:2])n1; DVT″ = divinyltriazine

Assays:
[1] = biological target: HumRadA22; experiment: ITC
[2] = biological target: HumRadA22; experiment: FP
[3] = biological target: HumRadA22; experiment: ITC; remark: listed apart in the source

Binder GFSGFSTASGKKLNVSCQALQKACKLFSG (linker 17-24 via DVP) [SP24, tag-free, stapled with DVP] has a Kd [1] of 21 nM and a Kd [2] of 13 nM.

Work on RRRRRRRRRGCSGFSTASGKKLNVSTQACQKAVKLFSG (stapled (linker not stated for SP31)) [SP31] yielded a Kd [3] of 44 nM.

Binder GCSGFSTASGKKLNVSTQACQKAVKLFSG (linker 2-20 via DVP (inferred)) [SP30, tag-free, stapled with DVP] has a Kd [1] of 26 nM and a Kd [2] of 13 nM.

In the case of VNSSAFSGFSTASGKKLNVSTEALQKAVKLFSDIENIS [BRC8-2 template], the Kd [1] is reported as 4 nM.

Binder GSVNSSAFSGFSTASGKKLNVSCEALQKACKLFSDI (linker 23-30 via DVT″) [SP2, tag-free, stapled with DVT] has a Kd [1] of 17 nM.
